According to patent US20130289246A1 (VANDERBILT UNIVERSITY, published 2013):

Key:
[1] = biological target: HA of A/Hong Kong/1/1968 (H3N2) virus (Influenza A virus (H3N2), UniProt Q91MA7 17-566); assay: cell-based or functional assay
[2] = biological target: HA of A/Alabama/1/1981 (H3N2) virus (Influenza A virus (H3N2)); assay: cell-based or functional assay
[3] = biological target: HA of A/Vietnam/1203/2004 (H5N1) virus (Influenza A virus (H5N1)); assay: cell-based or functional assay
[4] = biological target: HA of A/California/04/2009 (H1N1) virus (Influenza A virus (H1N1)); assay: cell-based or functional assay
[5] = biological target: recombinant soluble 1968 H3 HA (A/Aichi/2/1968) (Influenza A virus A/Aichi/2/1968 (H3N2), UniProt P03437 17-530); assay: ELISA, supernate
[6] = biological target: recombinant soluble trimeric 1918 H1 HA (A/South Carolina/1/1918, wild type) (Influenza A virus A/South …, UniProt Q9WFX3 18-529); assay: ELISA, supernate
Sequence of recombinant soluble trimeric 1918 H1 HA (A/South Carolina/1/1918, wild type) (Q9WFX3 18-529): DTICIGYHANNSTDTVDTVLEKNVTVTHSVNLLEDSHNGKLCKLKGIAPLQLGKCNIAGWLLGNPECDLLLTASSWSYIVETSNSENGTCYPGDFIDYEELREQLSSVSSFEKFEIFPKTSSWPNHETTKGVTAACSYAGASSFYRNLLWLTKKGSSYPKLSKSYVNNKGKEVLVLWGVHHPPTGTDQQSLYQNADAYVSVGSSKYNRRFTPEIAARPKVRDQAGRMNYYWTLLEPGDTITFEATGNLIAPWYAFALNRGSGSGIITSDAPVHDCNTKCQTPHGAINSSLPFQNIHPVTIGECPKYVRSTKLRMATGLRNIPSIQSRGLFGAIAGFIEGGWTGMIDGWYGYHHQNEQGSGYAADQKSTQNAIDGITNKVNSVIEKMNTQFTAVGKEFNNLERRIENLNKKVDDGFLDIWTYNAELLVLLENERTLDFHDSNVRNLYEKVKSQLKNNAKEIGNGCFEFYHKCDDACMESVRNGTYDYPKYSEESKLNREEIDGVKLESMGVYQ

B1: mAb 7A13 (antibody, V domains shown)
VH: QVQLQESAPGLVKPSGTLSLTCAVSGASLSSSDWWTWVRQPPGKGLEWIGEIHHGGSTNSNPSLQSRVTISIDKSKKQFSLKLTSVTVADTAVYYCARAPGADAGPYSENIHHWGQGTLVTVS
VL: QLVLTQSPSASASLGASVKLTCTLSSRHSDYAIGWHQQQPGKGPRYLMKLNPDGSHTKGDGIPDRFSGSSSGAERYLTISNLLSEDEADYYCQTWGTGIQVFGGGTRLTVIS
- HAI activity [1]: 0.7 µg/mL
- HAI activity [2]: > 20 µg/mL
- HAI activity [3]: > 20 µg/mL
- HAI activity [4]: > 20 µg/mL
- OD [5]: 0.265 OD
- OD [6]: 0.076 OD

B2: mAb 18G6 (antibody, V domains shown)
VH: QVQLKESGPGLVKPSETLSLTCTVSGGSISSSNYNWGWIRQPPGKGLEWIGSVYYSGSTYFNPSLKSRVTISVDTSKNQFSLKLTSVTAADTAVYYCARLIAFYYDTNGYTWGQGTLVTVS
VL: NSIMTQSPFTLSASVGDKVTITCRASQSISPWLAWYQQKPGKAPKLLIYKASSLETGVPSRFSGSESGTEFTLTISGLQPDDFATYYCQQYSSFARTFGQGTKVEIKR
- OD [5]: 0.073 OD
- OD [6]: 0.075 OD

B3: mAb 11J19 (antibody, V domains shown)
VH: EVQLQESGPGLVKPSETLSLSCTVSGGSITRSSYYWGWIRQPPGKGLEWIGNIYYSGTTYYNPSLKSRVTISVDTSKNQFSLKLSSVTAADTAVYYCARLYGSGLDYWGQGTLVTVS
VL: DIQLTQSPSFLSASVGDRVTITCRASQGSSRYVAWYQQKPGKAPKLLILAASTLHTGVPSRFSGSGSGTEFTLTISSLQPEDFATYSCQQLNGFLLTFGGGTKVEIKR
- HAI activity [1]: 2.5 µg/mL
- HAI activity [2]: > 20 µg/mL
- HAI activity [3]: > 20 µg/mL
- HAI activity [4]: > 20 µg/mL
- OD [5]: 0.895 OD
- OD [6]: 0.079 OD

B4: mAb 25J3 (antibody, V domains shown)
VH: QVQLQESGPGLVRPSETLSLTCNVSGDSINDYYWSWIRQPPGKGLEWIGYIYYSGSTNYNPSLNSRVTISVEMSKNQFSLILNSVTAADTAVYYCARVDYDSGGSFDPWGQGTLVTVS
VL: QSVLTQPPSVSGAPGQRVTISCTGSSSNIGAGYDVHWYQQLPGTAPKLLIYGNSNRPSGVPDRFSGSKSGTSASLAITGLQAEDEADFYCQSYDSRLSGYVFGTGTKVTVLG
- OD [5]: 0.623 OD
- OD [6]: 0.07 OD
